The record followed here is patent publication US12269859B2, “Synthetic immune receptors and methods of use thereof” (Angeles Therapeutics, Inc., priority 2016, dated 2025).

The test has as its system target antigen-expressing cell line. Description: Jurkat NFAT-GFP assay, coculture with target cell lines expressing the respective target antigen (summary Table 10A). The class given is cell-based, human. Details: key: The signs +/−, +, 2+ etc. after the name of the cell lines indicate the relative degree of positivity on the Jurkat-NFAT-GFP assay as measured by the % GFP positive cells; +: relative degree of positivity on the Jurkat-NFAT-GFP assay as measured by the % GFP positive cells; 2+: relative degree of positivity on the Jurkat-NFAT-GFP assay as measured by the % GFP positive cells. In short, it runs like this: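 Coculture of SIR-bearing Jurkat NFAT-GFP reporters with target cells, ~1:2 E:T, ~4–18 h. FACS quantified % GFP+ cells, ranked semi-quantitatively against parental Jurkat-NFAT-GFP.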

[1] abbreviates: coculture with TF228.1.1.6 cells.

B1: 121416-D03 (protein)
chain: MALPVTALLLPLALLLHAARPLEQKLISEEDLGSGDRPDPAVYQLRDSKSSDKSVCLFTDFDSQTNVSQSKDSDVYITDKCVLDMRSMDFKSNSAVAWSNKSDFACANAFNNSIIPEDTFFPSPESSCDVKLVEKSFETDTNLNFQNLSVIGFRILLLKVAGFNLLMTLRLWSSSSRAKRSGSGVKQTLNFDLLKLAGDVESNPGPTSMALPVTALLLPLALLLHAARPDYIHVTQSPSSLSVSIGDRVTINCQTSQGVGSDLHWYQHKPGRAPKLLIHHASSVEDGVPSRFSGTGFHTSFNLTINDLQADDIGTYYCQVLQSFGRGSRLDTKGGGGSGGGGSGGGGSRAHLVQSGTAMKKPGASVRVSCQTSGYTFTAHILFWFRQAPGRGLEWVGWIKPQYGAVNFGGGFRDRVTLTRDVYREIAYMDIRGLKPDDTAVYYCARDRSYGDSSWALDAWGQGTTVVVSATRGKPIPNPLLGLDSTGSGEDLKNVFPPEVAVFEPSEAEISHTQKATLVCLATGFYPDHVELSWWVNGKEVHSGVCTDPQPLKEQPALNDSRYCLSSRLRVSATFWQNPRNHFRCQVQFYGLSENDEWTQDRAKPVTQIVSAEAWGRADCGFTSESYQQGVLSATILYEILLGKATLYAVLVSALVLMAMVKRKDSRGRAKRSGSGATNFSLLKQAGDVEENPGPSRGHMTEYKPTVRLATRDDVPRAVRTLAAAFADYPATRHTVDPDRHIERVTELQELFLTRVGLDIGKVWVADDGAAVAVWTTPESVEAGAVFAEIGPRMAELSGSRLAAQQQMEGLLAPHRPKEPAWFLATVGVSPDHQGKGLGSAVVLPGVEAAERAGVPAFLETSAPRNLPFYERLGFTVTADVEVPEGPRTWCMTRKPGA
modifications: Synthetic Immune Receptor (SIR)
For the molecule B1, the “NFAT-GFP ASSAY Positive Cell lines” value by setting is: (coculture with HL2-3 cells) “HL2-3 (+/−),”; under setting [1], “TF228.1.1.6 (+)”.

B2: 121416-H05 (protein)
chain: MALPVTALLLPLALLLHAARPLEGKPIPNPLLGLDSTGSGEDLKNVFPPEVAVFEPSKAEIAHTQKATLVCLATGFYPDHVELSWWVNGKEVHSGVCTDPQPLKEQPALNDSRYCLSSRLRVSATFWQNPRNHFRCQVQFYGLSENDEWTQDRAKPVTQIVSAEAWGRADCGITSASYHQGVLSATILYEILLGKATLYAVLVSALVLMAMVKRKDSRGRAKRSGSGATNFSLLKQAGDVEENPGPTSMALPVTALLLPLALLLHAARPDYIHVTQSPSSLSVSIGDRVTINCQTSQGVGSDLHWYQHKPGRAPKLLIHHASSVEDGVPSRFSGTGFHTSFNLTINDLQADDIGTYYCQVLQSFGRGSRLDTKGGGGSGGGGSGGGGSRAHLVQSGTAMKKPGASVRVSCQTSGYTFTAHILFWFRQAPGRGLEWVGWIKPQYGAVNFGGGFRDRVTLTRDVYREIAYMDIRGLKPDDTAVYYCARDRSYGDSSWALDAWGQGTTVVVSATREQKLISEEDGSGIQNPDPAVYQLRDSKSSDKSVCLFTDFDSQTNVSQSKDSDVYITDKCVLDMRSMDFKSNSAVAWSNKSDFACANAFNNSIIPEDTFFPSSDVPCDVKLVEKSFETDTNLNFQNLSVIGFRILLLKVAGFNLLMTLRLWSSRAKRSGSGVKQTLNFDLLKLAGDVESNPGPSRGHMTEYKPTVRLATRDDVPRAVRTLAAAFADYPATRHTVDPDRHIERVTELQELFLTRVGLDIGKVWVADDGAAVAVWTTPESVEAGAVFAEIGPRMAELSGSRLAAQQQMEGLLAPHRPKEPAWFLATVGVSPDHQGKGLGSAVVLPGVEAAERAGVPAFLETSAPRNLPFYERLGFTVTADVEVPEGPRTWCMTRKPGA
modifications: Polynucleotide encoding a Synthetic Immune Receptor (SIR)
Turning to B2, the “NFAT-GFP ASSAY Positive Cell lines” value (coculture with HL2-3 cells) is “HL2-3 (+/−),” and the “NFAT-GFP ASSAY Positive Cell lines” value under setting [1] was “TF228.1.1.6 (+/−)”.

B3: 090116-J01 (protein)
chain: MALPVTALLLPLALLLHAARPLEGKPIPNPLLGLDSTGSGEDLKNVFPPEVAVFEPSKAEIAHTQKATLVCLATGFYPDHVELSWWVNGKEVHSGVCTDPQPLKEQPALNDSRYCLSSRLRVSATFWQNPRNHFRCQVQFYGLSENDEWTQDRAKPVTQIVSAEAWGRADCGITSASYHQGVLSATILYEILLGKATLYAVLVSALVLMAMVKRKDSRGRAKRSGSGATNFSLLKQAGDVEENPGPTSMALPVTALLLPLALLLHAARPDIQMTQSPASLSASVGETVTIICRASVNIYSYLAWYQQKQGKSPQLLVYNAKILAEGVPSRFSGSGSGTQFSLKINSLQPEDFGSYYCQHHYGTFTFGSGTKLEIKRGGGGSGGGGSGGGGSQVQLKESGPGLVAPSQSLSITCTISGFSLTSYGVHWVRQPPGKGLEWLVVIWSDGSTTYNSALKSRLSISKDNSKSQVFLKMNSLQTDDTAIYYCASHYGSTLAFASWGHGTLVTVSAATREQKLISEEDGSGIQNPDPAVYQLRDSKSSDKSVCLFTDFDSQTNVSQSKDSDVYITDKCVLDMRSMDFKSNSAVAWSNKSDFACANAFNNSIIPEDTFFPSSDVPCDVKLVEKSFETDTNLNFQNLSVIGFRILLLKVAGFNLLMTLRLWSSRAKRSGSGVKQTLNFDLLKLAGDVESNPGPSRGHMTEYKPTVRLATRDDVPRAVRTLAAAFADYPATRHTVDPDRHIERVTELQELFLTRVGLDIGKVWVADDGAAVAVWTTPESVEAGAVFAEIGPRMAELSGSRLAAQQQMEGLLAPHRPKEPAWFLATVGVSPDHQGKGLGSAVVLPGVEAAERAGVPAFLETSAPRNLPFYERLGFTVTADVEVPEGPRTWCMTRKPGA
modifications: Synthetic Immune Receptor (SIR)
For the molecule B3, the “NFAT-GFP ASSAY Positive Cell lines” value (coculture with NALM6 cells) is “(+)”.

B4: 042916-B04 (protein)
chain: MALPVTALLLPLALLLHAARPLEGKPIPNPLLGLDSTGSGEDLKNVFPPEVAVFEPSKAEIAHTQKATLVCLATGFYPDHVELSWWVNGKEVHSGVCTDPQPLKEQPALNDSRYCLSSRLRVSATFWQNPRNHFRCQVQFYGLSENDEWTQDRAKPVTQIVSAEAWGRADCGITSASYHQGVLSATILYEILLGKATLYAVLVSALVLMAMVKRKDSRGRAKRSGSGATNFSLLKQAGDVEENPGPTSTMALPVTALLLPLALLLHAARPDIQMTQSPSSLSASVGDRVTITCTASLSVSSTYLHWYQQKPGSSPKLWIYSTSNLASGVPSRFSGSGSGTSYTLTISSLQPEDFATYYCHQYHRSPLTFGGGTKVEIKRGGGGSGGGGSGGGGSEVQLVESGGGLVQPGGSLRLSCAASGFSLTKYGVHWVRQAPGKGLEWVGVKWAGGSTDYNSALMSRFTISKDNAKNSLYLQMNSLRAEDTAVYYCARDHRDAMDYWGQGTLVTVSSTREQKLISEEDGSGIQNPDPAVYQLRDSKSSDKSVCLFTDFDSQTNVSQSKDSDVYITDKCVLDMRSMDFKSNSAVAWSNKSDFACANAFNNSIIPEDTFFPSSDVPCDVKLVEKSFETDTNLNFQNLSVIGFRILLLKVAGFNLLMTLRLWSSRAKRSGSGVKQTLNFDLLKLAGDVESNPGPSRGHMTEYKPTVRLATRDDVPRAVRTLAAAFADYPATRHTVDPDRHIERVTELQELFLTRVGLDIGKVWVADDGAAVAVWTTPESVEAGAVFAEIGPRMAELSGSRLAAQQQMEGLLAPHRPKEPAWFLATVGVSPDHQGKGLGSAVVLPGVEAAERAGVPAFLETSAPRNLPFYERLGFTVTADVEVPEGPRTWCMTRKPGA
modifications: Synthetic Immune Receptor (SIR)
As to B4, the “NFAT-GFP ASSAY Positive Cell lines” value (coculture with U87-MG (U87MG) cells) is recorded as “U87MG”.

B5: 091616-X01 (protein)
chain: MALPVTALLLPLALLLHAARPELVLTQSPGTLSLSAGERATLSCRASQSVSSGSLAWYQQKPGQAPRLLIYGASTRATGIPDRFSGSGSGTDFTLTIGRLEPEDLAVYYCQQYGTSPYTFGQGTKLEILEEQKLISEEDLGSGEDLKNVFPPEVAVFEPSKAEIAHTQKATLVCLATGFYPDHVELSWWVNGKEVHSGVCTDPQPLKEQPALNDSRYCLSSRLRVSATFWQNPRNHFRCQVQFYGLSENDEWTQDRAKPVTQIVSAEAWGRADCGITSASYHQGVLSATILYEILLGKATLYAVLVSALVLMAMVKRKDSRGRAKRSGSGATNFSLLKQAGDVEENPGPTSMDWIWRILFLVGAATGAHSFELEQSGAEVKKPGSSVQVSCKASGGTFSMYGFNWVRQAPGHGLEWMGGIIPIFGTSNYAQKFRGRVTFTADQATSTAYMELTNLRSDDTAVYYCARDFGPDWEDGDSYDGSGRGFFDFWGQGTLVTVSSTREQKLISEEDGSGIQNPDPAVYQLRDSKSSDKSVCLFTDFDSQTNVSQSKDSDVYITDKCVLDMRSMDFKSNSAVAWSNKSDFACANAFNNSIIPEDTFFPSSDVPCDVKLVEKSFETDTNLNFQNLSVIGFRILLLKVAGFNLLMTLRLWSSRAKRSGSGVKQTLNFDLLKLAGDVESNPGPSRGHMTEYKPTVRLATRDDVPRAVRTLAAAFADYPATRHTVDPDRHIERVTELQELFLTRVGLDIGKVWVADDGAAVAVWTTPESVEAGAVFAEIGPRMAELSGSRLAAQQQMEGLLAPHRPKEPAWFLATVGVSPDHQGKGLGSAVVLPGVEAAERAGVPAFLETSAPRNLPFYERLGFTVTADVEVPEGPRTWCMTRKPGA
modifications: Synthetic Immune Receptor (SIR)
For B5, the “NFAT-GFP ASSAY Positive Cell lines” value is, setting by setting: (coculture with HL2-3 cells) “HL2-3 (+/−)”; under setting [1], “TF228.1.1.6 (+),”.

B6: 071417-W08 (protein)
chain: MALPVTALLLPLALLLHAARPLEGKPIPNPLLGLDSTGSGEDLKNVFPPEVAVFEPSKAEIAHTQKATLVCLATGFYPDHVELSWWVNGKEVHSGVCTDPQPLKEQPALNDSRYCLSSRLRVSATFWQNPRNHFRCQVQFYGLSENDEWTQDRAKPVTQIVSAEAWGRADCGITSASYHQGVLSATILYEILLGKATLYAVLVSALVLMAMVKRKDSRGRAKRSGSGATNFSLLKQAGDVEENPGPTSMALPVTALLLPLALLLHAARPDVMLTQTPLSLPVSLGDQASISCRSSQSILHSTGDTYLEWYLQKPGQSPKLLINKVSNRLSGVPDRFSGSGSGTDFTLKISRVEAEDLGVYYCFQGSHVPWTFGGGTKLEIKRADAAPTVSIFPGGGGSGGGGSGGGGSQVKLQQSGPSLVKPGASVKMSCKASGYTFTDFYMKWVKQSHGKSLEWIGDINPNIGDTFYNQKFKGKATLTVDKSSSTAYMQLNSLTSEDSAVYFCSVGYFDVWGAGTTVTVSSTREQKLISEEDGSGIQNPDPAVYQLRDSKSSDKSVCLFTDFDSQTNVSQSKDSDVYITDKCVLDMRSMDFKSNSAVAWSNKSDFACANAFNNSIIPEDTFFPSSDVPCDVKLVEKSFETDTNLNFQNLSVIGFRILLLKVAGFNLLMTLRLWSSRAKRSGSGVKQTLNFDLLKLAGDVESNPGPSRGHMTEYKPTVRLATRDDVPRAVRTLAAAFADYPATRHTVDPDRHIERVTELQELFLTRVGLDIGKVWVADDGAAVAVWTTPESVEAGAVFAEIGPRMAELSGSRLAAQQQMEGLLAPHRPKEPAWFLATVGVSPDHQGKGLGSAVVLPGVEAAERAGVPAFLETSAPRNLPFYERLGFTVTADVEVPEGPRTWCMTRKPGA
Turning to B6, where the note is “coculture with U266 cells”, the “NFAT-GFP ASSAY Positive Cell lines” value is reported as “U266 (+/−)”.
